In one assay the target is recombinant human TLR2 (human, UniProt O60603). Briefly: flow cytometry of receptor-conjugated beads. (In general: A flow cytometer gives signals particle by particle.)
A further assay has as its target T1, recombinant human CD14 (human, UniProt P08571 20-345).
T1 sequence: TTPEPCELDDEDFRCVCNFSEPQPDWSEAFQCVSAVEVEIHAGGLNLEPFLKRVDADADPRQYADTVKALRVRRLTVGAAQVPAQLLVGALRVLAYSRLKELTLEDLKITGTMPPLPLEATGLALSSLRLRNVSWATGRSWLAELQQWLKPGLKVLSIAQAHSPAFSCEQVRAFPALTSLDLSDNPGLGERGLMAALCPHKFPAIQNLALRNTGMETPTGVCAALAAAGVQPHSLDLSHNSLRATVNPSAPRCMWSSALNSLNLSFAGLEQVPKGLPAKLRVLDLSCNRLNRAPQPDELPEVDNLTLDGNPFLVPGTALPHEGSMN
As to the kind of experiment: flow cytometry of receptor-conjugated beads.

Sequence of recombinant human TLR2 (O60603 21-588): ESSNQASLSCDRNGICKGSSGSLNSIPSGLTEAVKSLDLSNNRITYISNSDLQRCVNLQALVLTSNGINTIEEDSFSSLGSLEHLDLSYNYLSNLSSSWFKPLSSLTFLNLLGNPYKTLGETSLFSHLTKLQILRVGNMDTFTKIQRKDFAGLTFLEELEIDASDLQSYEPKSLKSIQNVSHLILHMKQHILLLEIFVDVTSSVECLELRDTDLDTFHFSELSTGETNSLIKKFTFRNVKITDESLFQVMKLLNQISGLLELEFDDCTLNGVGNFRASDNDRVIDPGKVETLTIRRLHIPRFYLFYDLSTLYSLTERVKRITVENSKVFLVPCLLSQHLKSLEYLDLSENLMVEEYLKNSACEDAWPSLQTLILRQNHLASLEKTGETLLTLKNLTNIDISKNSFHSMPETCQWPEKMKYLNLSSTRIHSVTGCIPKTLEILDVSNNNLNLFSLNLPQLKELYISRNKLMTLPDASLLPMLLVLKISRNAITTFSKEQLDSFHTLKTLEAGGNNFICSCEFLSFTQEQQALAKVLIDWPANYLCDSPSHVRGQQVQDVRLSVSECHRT

On to RAIGGGLSSVGGGSSTIK [KAMP-18C], for which the binding result with recombinant human TLR2 and in the assay with recombinant human CD14 was “binds” throughout.

GGLSSVGGGS [KAMP-10]: the binding result with recombinant human TLR2 and with recombinant human CD14 was “binds” each time.

Source of the values: article doi:10.1101/2021.01.18.427180 (bioRxiv, 2021).
